The target in the test is NC-RLuc (HIV-1 nucleocapsid fused to Renilla luciferase), expressed in HeLa cells (HIV-1). The experiment in a line: proximity ligation.

Substance “Staufen1-YFP (from UniProt O95793-2 1-496) (natural protein)” came in with a PLA spots per cell (spots per cell) of 103.

The record behind these values is article PMC5769749.
